Reference: patent US20230322927A1 (Regeneron, published 2023)

Assays:
human EGFR on cells [1] = biological target: T1, human EGFR on cells (human, UniProt P00533 25-1210); assay: flow cytometry titration on SW1990 cells (EGFR-expressing)
T1 construct: whole, on cells; One molecule is used for both endogenous EGFR on human tumour cell lines and EGFR overexpressed on Ba/F3 cells; also called hEGFR; EGFR+ cells (PEO1, A375, 22RV1, CAPAN2, SW1990, H292, CASKI)
Protocol: (§1) Flow cytometric analysis was utilized to determine binding of anti-EGFR X anti-CD28 bispecific antibodies to several cancer cell lines (A375, 22RV1, PEO1, CAPAN2, SWi1990, H292), Human and Cynomolgus T cells and Jurkat cells followed by detection with a labeled anti-human secondary IgG antibody. […] After incubation, the cells were washed twice with cold PBS containing 1% filtered FBS and a Fluorophore-conjugated anti-human secondary antibody was added to the cells and incubated for an additional 30 minutes. Live/dead dye was added to Human and Cynomolgus T cells incubations. Wells containing no antibody or secondary only were used as a control.

[2] = biological target: T2, hEGFR(ECD).CPGG.MMH6 (REGN355) (human, UniProt P00533 25-647); assay: SPR (Biacore 4000) at 25 C; antibody captured on anti-human Fc, hEGFR.mmH injected
T2 construct: Soluble extracellular domain with a myc-myc-hexahistidine tag; also called hEGFR.mmH; hEGFR.mmh
Protocol: Association was monitored for 5 minutes, and the dissociation of hEGFR.mmH in HBS-EP running buffer was monitored for 10 minutes. All of the binding kinetics experiments were performed at 25° C. Kinetic association (kₐ) and dissociation (kd) rate constants were determined by fitting the real-time sensorgrams to a 1:1 binding model using Scrubber 2.0c curve fitting software.

human EGFR on cells [3] = biological target: T1, human EGFR on cells; assay: flow cytometry titration on PEO1 cells (EGFR-expressing)
Protocol: as §1

human EGFR on cells [4] = biological target: T1, human EGFR on cells; assay: flow cytometry titration on CAPAN2 cells (EGFR-expressing)
Protocol: as §1

human EGFR on cells [5] = biological target: T1, human EGFR on cells; assay: flow cytometry titration on A375 cells (EGFR-expressing)
Protocol: as §1

hCD28.mFc (REGN2012) = biological target: T3, hCD28.mFc (REGN2012) (human, UniProt P10747 19-152, limits assumed); assay: SPR (Biacore T-200) at 25 C; hCD28.mFc captured on anti-mouse Fc, antibody injected
T3 construct: also called Human CD28-mFc; hCD28 with a C-terminal mouse Fc tag; not shown: C-terminal mouse Fc tag

human EGFR on cells [6] = biological target: T1, human EGFR on cells; assay: flow cytometry titration on 22RV1 cells
Protocol: (§2) After incubation, the cells were washed twice with cold PBS containing 1% filtered FBS and a Fluorophore-conjugated anti-human secondary antibody was added to the cells and incubated for an additional 30 minutes. Live/dead dye was added to Human and Cynomolgus T cells incubations. Wells containing no antibody or secondary only were used as a control.
(§3) After incubation with EGFR expressing cells, cells were washed, re-suspended in 200 μL cold PBS containing 1% filtered FBS and analyzed by flow cytometry on a BD FACS Canto II.

human EGFR on cells [7] = biological target: T1, human EGFR on cells; assay: cell-based or functional assay
human EGFR on cells [8] = biological target: T1, human EGFR on cells; assay: flow cytometry titration on H292 cells (EGFR-expressing)
Protocol: as §1

human CD28 on cells = human CD28 on cells (human, UniProt P10747 19-220); assay: cell-based or functional assay
human EGFR on cells [9] = biological target: T1, human EGFR on cells; assay: flow cytometry titration on PEO1 cells
Protocol: as §2, §3

human EGFR on cells [10] = biological target: T1, human EGFR on cells; assay: flow cytometry titration on CASKI cells; CASKI cells
human EGFR on cells [11] = biological target: T1, human EGFR on cells; assay: flow cytometry titration on A375 cells
Protocol: as §2, §3

human EGFR on cells [12] = biological target: T1, human EGFR on cells; assay: flow cytometry titration on 22RV1 cells (EGFR-expressing)
Protocol: as §1

B1: REGN6323 (bispecific antibody, human IgG4 S228P, kappa)
heavy 1: QVQLQESGPGLVKPSETLSLTCTVSDDSIISYYWSWIRQPPGKGLEWIGYIYYSGRTNYNPSLKSRVTISVDTSKNQVSLKLNSVIAADTAVYYCARVSEDSYYHYGMDVWGQGTTVTVSSASTKGPSVFPLAPCSRSTSESTAALGCLVKDYFPEPVTVSWNSGALTSGVHTFPAVLQSSGLYSLSSVVTVPSSSLGTKTYTCNVDHKPSNTKVDKRVESKYGPPCPPCPAPPVAGPSVFLFPPKPKDTLMISRTPEVTCVVVDVSQEDPEVQFNWYVDGVEVHNAKTKPREEQFNSTYRVVSVLTVLHQDWLNGKEYKCKVSNKGLPSSIEKTISKAKGQPREPQVYTLPPSQEEMTKNQVSLTCLVKGFYPSDIAVEWESNGQPENNYKTTPPVLDSDGSFFLYSRLTVDKSRWQEGNVFSCSVMHEALHNHYTQKSLSLSLGK
heavy 2: QVQLQESGPGLVKPSETLSLTCTVSGGSISSYYWSWIRQPPGKGLEWIGYIYYSGITHYNPSLKSRVTISVDTSKIQFSLKLSSVTAADTAVYYCARWGVRRDYYYYGMDVWGQGTTVTVSSASTKGPSVFPLAPCSRSTSESTAALGCLVKDYFPEPVTVSWNSGALTSGVHTFPAVLQSSGLYSLSSVVTVPSSSLGTKTYTCNVDHKPSNTKVDKRVESKYGPPCPPCPAPPVAGPSVFLFPPKPKDTLMISRTPEVTCVVVDVSQEDPEVQFNWYVDGVEVHNAKTKPREEQFNSTYRVVSVLTVLHQDWLNGKEYKCKVSNKGLPSSIEKTISKAKGQPREPQVYTLPPSQEEMTKNQVSLTCLVKGFYPSDIAVEWESNGQPENNYKTTPPVLDSDGSFFLYSRLTVDKSRWQEGNVFSCSVMHEALHNRFTQKSLSLSPGK
light: not shown
notes: EGFR arm from mAb13006P2, CD28 arm from mAb14226; also called bsAb6323; EGFRxCD28
Human EGFR on cells [1]
  EC50: 2.96 nM
[2]
  Kd: 3.75 nM
  koff: 0.000774 s⁻¹
  kon: 206000 M⁻¹ s⁻¹
  t½: 14.9 min
Human EGFR on cells [3]
  EC50: 0.667 nM
Human EGFR on cells [4]
  EC50: 1.29 nM
Human EGFR on cells [5]
  EC50: 1.48 nM
hCD28.mFc (REGN2012)
  Kd: 10 nM
  koff: 0.00265 s⁻¹
  kon: 265000 M⁻¹ s⁻¹
  t½: 4.4 min
Human EGFR on cells [6]
  EC50: 11.9 nM
Human EGFR on cells [7]
  Inhibition [%] of BaF3/hEGFR proliferation in presence of 0.5 nM hEGF: 28.5%
  Inhibition [%] of BaF3/hEGFR proliferation in presence of 0.5 nM hTGFβ: -7.3%
Human EGFR on cells [8]
  EC50: 0.674 nM
Human CD28 on cells
  IL-2 Release MAX (pg/mL), human CD3+ T cells + NCI-H292 cells, with 20 nM IsoC-1: 13.2 pg/mL
  IL-2 Release MAX (pg/mL), human CD3+ T cells + NCI-H292 cells, with 20 nM cemiplimab: 36.7 pg/mL
  Proliferation EC50 [M], human CD3+ T cells + NCI-H292 cells, with 20 nM IsoC-1: 2.29e-11 M
  Proliferation EC50 [M], human CD3+ T cells + NCI-H292 cells, with 20 nM cemiplimab: 3.13e-11 M
  Proliferation MAX (CPM), human CD3+ T cells + NCI-H292 cells, with 20 nM IsoC-1: 1660 CPM
  Proliferation MAX (CPM), human CD3+ T cells + NCI-H292 cells, with 20 nM cemiplimab: 2340 CPM
Human EGFR on cells [9]
  EC50: 5.86 nM
Human EGFR on cells [10]
  EC50: 2.35 nM
Human EGFR on cells [11]
  EC50: 0.874 nM
Human EGFR on cells [12]
  EC50: 0.554 nM
